Here are results for six molecules from paper PMC7785020, “A unique hormonal recognition feature of the human glucagon-like peptide-2 receptor” (Cell Research, 2020).

Substitutions are numbered along the chain they refer to.

The target in assay [1] is T1, GLP-2R W249^ECL1A (Homo sapiens, UniProt O95838, W249A).
T1 sequence (O95838 1-553 W249A): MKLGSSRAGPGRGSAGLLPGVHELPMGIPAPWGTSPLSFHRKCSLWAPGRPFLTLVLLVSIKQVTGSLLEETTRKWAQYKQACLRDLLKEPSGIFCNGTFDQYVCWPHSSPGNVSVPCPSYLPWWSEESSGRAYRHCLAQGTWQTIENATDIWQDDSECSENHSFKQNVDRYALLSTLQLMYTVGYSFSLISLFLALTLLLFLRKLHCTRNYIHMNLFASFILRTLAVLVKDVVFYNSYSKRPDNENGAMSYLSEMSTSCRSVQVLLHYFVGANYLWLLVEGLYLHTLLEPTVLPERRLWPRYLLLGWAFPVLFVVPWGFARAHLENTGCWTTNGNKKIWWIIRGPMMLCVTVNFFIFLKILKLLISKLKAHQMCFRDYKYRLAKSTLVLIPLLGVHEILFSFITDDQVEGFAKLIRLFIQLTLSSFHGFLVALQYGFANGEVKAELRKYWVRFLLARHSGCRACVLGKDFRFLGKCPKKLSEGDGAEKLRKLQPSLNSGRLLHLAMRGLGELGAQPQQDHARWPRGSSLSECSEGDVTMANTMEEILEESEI
The assay is described as follows: cAMP accumulation, W249^ECL1A. In kind it is cell-based. On the set-up: WT (1–553); expressed in transfected cells; HEK 293T (cAMP). The protocol: (§1) They were seeded onto 6-well cell culture plates and transiently transfected with different GLP-2R constructs using Lipofectamine 2000 transfection reagent (Invitrogen, Carlsbad, CA, USA). After 24 h, the transfected cells were seeded onto 384-well microtiter plates (3000 cells per well) in HBSS supplemented with 5 mM HEPES, 0.1% (w/v) bovine serum albumin (BSA) and 0.5 mM 3-isobutyl-1- methylxanthine, and stimulated with increasing concentrations of GLP-2 for 30 min at RT. Eu and Ulight were diluted by cAMP detection buffer and added to the plates separately to terminate the reaction. Plates were incubated at RT for 60 min before measuring the fluorescence intensity at 620 nm and […] by an EnVision multilabel plate reader (PerkinElmer, Boston, USA).

Assay [2] deals with T2, GLP-2R Y252^ECL1A (Homo sapiens, UniProt O95838, Y252A).
T2 sequence (O95838 1-553 Y252A): T1 sequence (O95838 1-553 W249A) with A249W, Y252A
The assay is described as follows: cAMP accumulation, Y252^ECL1A. The class given is cell-based. On the set-up: WT (1–553); expressed in transfected cells; HEK 293T (cAMP). As to the method:
as §1

Assay [3] deals with T3, GLP-2R R242^ECL1E (Homo sapiens, UniProt O95838, R242E).
T3 sequence (O95838 1-553 R242E): T1 sequence (O95838 1-553 W249A) with R242E, A249W
Briefly: cAMP accumulation, R242^ECL1E. In kind it is cell-based. Set-up: WT (1–553); expressed in transfected cells; HEK 293T (cAMP). As to the method: as §1

Assay [4] has as its system GLP-2R. The conditions noted are these: cited from earlier work. An excerpt:
Consistently, the truncated metabolite GLP-2(3–33) acts as a part ...

In assay [5] the target is GLP-2R R242(ECL1)E (human) (UniProt O95838).
Assay [6] concerns the target T4, GLP-2R R242(ECL1)A (human) (UniProt O95838).
T4 sequence: T1 sequence (O95838 1-553 W249A) with R242A, A249W

Assay [7] has as its target GLP-2R (1-553) (WT) (human) (UniProt O95838).
Assay [8] deals with T5, GLP-2R Y252(ECL1)A (human) (UniProt O95838).
T5 sequence: T1 sequence (O95838 1-553 W249A) with A249W, Y252A

For assay [9], the target named is GLP-2R W249^ECL1A (human) (UniProt O95838).
Assay [10] addresses GLP-2R R242(ECL1)E (human) (UniProt O95838). The source holds these as a separate data set.
In assay [11] the target is T4, GLP-2R R242(ECL1)A (human). This is another data set of the same source.
In assay [12] the target is GLP-2R (1-553) (WT) (human) (UniProt O95838). This is another data set of the same source.
In assay [13] the target is T5, GLP-2R Y252(ECL1)A (human). This is another data set of the same source.
The target of assay [14] is GLP-2R W249^ECL1A (human) (UniProt O95838). This is another data set of the same source.
Assay [15] has as its target Human GLP-2R WT (1–553) (human) (UniProt O95838).
Assay [16] addresses GLP-1R (WT) (Homo sapiens, UniProt P43220).

Sequence of GLP-1R (WT) (P43220 24-463): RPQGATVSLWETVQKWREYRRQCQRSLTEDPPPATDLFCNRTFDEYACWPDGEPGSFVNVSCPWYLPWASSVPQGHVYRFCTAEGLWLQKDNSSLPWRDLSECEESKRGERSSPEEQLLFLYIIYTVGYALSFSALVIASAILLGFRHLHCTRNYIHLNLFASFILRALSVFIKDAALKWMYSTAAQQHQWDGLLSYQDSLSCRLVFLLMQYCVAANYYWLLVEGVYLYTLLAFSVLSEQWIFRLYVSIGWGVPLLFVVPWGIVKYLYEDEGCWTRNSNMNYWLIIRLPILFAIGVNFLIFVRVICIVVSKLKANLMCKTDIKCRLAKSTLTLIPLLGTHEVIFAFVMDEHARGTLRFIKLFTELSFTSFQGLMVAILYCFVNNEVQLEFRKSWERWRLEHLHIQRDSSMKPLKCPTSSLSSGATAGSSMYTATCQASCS

With `CC[C@H](C)[C@H](NC(=O)[C@H](Cc1ccccc1)NC(=O)[C@H](CCC(=O)O)NC(=O)[C@H](CCCCN)NC(=O)[C@H](C)NC(=O)[C@H](C)NC(=O)[C@H](CCC(N)=O)NC(=O)CNC(=O)[C@H](CCC(=O)O)NC(=O)[C@H](CC(C)C)NC(=O)[C@H](Cc1ccc(O)cc1)NC(=O)[C@H](CO)NC(=O)[C@H](CO)NC(=O)[C@@H](NC(=O)[C@H](CC(=O)O)NC(=O)[C@H](CO)NC(=O)[C@@H](NC(=O)[C@H](Cc1ccccc1)NC(=O)[C@@H](NC(=O)CNC(=O)[C@H](CCC(=O)O)NC(=O)[C@H](C)NC(=O)[C@@H](N)Cc1c[nH]cn1)[C@@H](C)O)[C@@H](C)O)C(C)C)C(=O)N[C@@H](C)C(=O)N[C@@H](Cc1c[nH]c2ccccc12)C(=O)N[C@@H](CC(C)C)C(=O)N[C@H](C(=O)N[C@@H](CCCCN)C(=O)NCC(=O)N[C@@H](CCCNC(=N)N)C(=O)NCC(=O)O)C(C)C` [GLP-1(1-31)], the EC50 was 2.51 nM in [1], 0.631 nM in [2] and 2.51 nM in [3]. For the same molecule, the Emax is -2.4 ± 0.7% in assay [1] (HEK-293T, Table S5, W249A, HEK 293T, 30 min, RT, mean ± SEM, n ≥ 3 in duplicate, read-out: cAMP Emax (% WT)); -0.7 ± 1.1% in assay [2] (HEK-293T, Table S5, Y252A, HEK 293T, 30 min, RT, mean ± SEM, n ≥ 3 in duplicate, read-out: cAMP Emax (% WT)); -2.2 ± 0.9% in assay [3] (HEK-293T, Table S5, R242E, HEK 293T, 30 min, RT, mean ± SEM, n ≥ 3 in duplicate, read-out: cAMP Emax (% WT)).

For the molecule “GLP-2(3–33): truncated metabolite of GLP-2, partial agonist (DGSFSDEMNTILDNLAARDFINWLIQTKITD; Glucagon-like peptide 2; UniProt P01275 148-178, looked up, fragment)”, the “type of agonism (in words)” value in assay [4] (GLP-2R) was “partial agonist”. Besides, in assay [4] (vs GLP-2), the “reduction in binding affinity (in words)” value is reported as “great reduction in binding affinity”; the “reduction in potency (in words)” value was “great reduction in binding affinity and potency”.

As to Human GLP-2(1-33) (peptide), the Table S3: pEC50 of GLP-2-induced cAMP accumulation, HEK 293T cells transfected with the receptor mutant is 9.1 -log M in assay [5], 9.8 -log M in assay [6], 9.8 -log M in [8] and 7.2 -log M in assay [9]. Besides, the Table S3: pEC50 of GLP-2-induced cAMP accumulation, HEK 293T cells transfected with the receptor (wild-type reference of the table) in assay [7] was 10.4 -log M. Besides, the Table S5: pEC50 of GLP-2(1-33)-induced cAMP accumulation, cells transfected with the receptor mutant was 9.6 -log M in assay [10], 9.9 -log M in [11], 10.1 -log M in assay [13] and 7.4 -log M in assay [14]. In [12], the Table S5: pEC50 of GLP-2(1-33)-induced cAMP accumulation, cells transfected with the receptor (wild-type reference of the table) is 10.8 -log M.

On to chimeric GLP-2/GLP-1(1–6) (peptide), for which the peptide-induced cAMP accumulation for GLP-2R: fold decrease against native GLP-2 in assay [15] was found to be 12 fold.

In turn, chimeric GLP-2/GLP-1(20–33) (peptide) showed a peptide-induced cAMP accumulation for GLP-2R: fold reduction of potency in assay [15] of 17 fold.

B1: chimeric GLP-2/GLP-1(7-19) (peptide)
peptide: HADGSFTSDVSSYLEGQAARDFINWLIQTKITD
Turning to B1, the Table S5: pEC50 of cAMP accumulation induced by the chimeric peptide (7-19), cells transfected with GLP-2R (WT) in assay [12] is 8.5 -log M. Also, in assay [16], the Table S5: pEC50 of cAMP accumulation induced by the chimeric peptide (7-19), cells transfected with GLP-1R (WT) is 10.9 -log M.
